tested on: Escherichia coli TOP10; experiment: shrunken log2 fold change of peptide-encoding DNA abundance (4.5 h post-induction vs induction); higher = less antimicrobial activity (less host growth inhibition); details: time post-induction: 4.5 h; library: site-saturation at positions 5, 18, 19, 20
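Also: peptides expressed intracellularly from a pBAD plasmid library in pooled LB shake-flask culture, induced with 0.3% L-arabinose, DNA abundance read by NGS, three biological replicates, DESeq2 with apeglm shrinkage.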

Sequence	shrunken log2 fold change
RRIRLRPPRLPRPRPRPDPFPRP	-0.228
RRIRNRPPRLPRPRPRPTRNPRP	0.0941
RRIRQRPPRLPRPRPRPNLDPRP	0.0163
RRIRGRPPRLPRPRPRPLPRPRP	1.5
RRIRCRPPRLPRPRPRPRDWPRP	0.591
RRIRLRPPRLPRPRPRPDNYPRP	0.0733
RRIRSRPPRLPRPRPRPCTSPRP	-0.0192
RRIRQRPPRLPRPRPRPTTDPRP	-0.0492
RRIRKRPPRLPRPRPRPMEIPRP	0.155
RRIRIRPPRLPRPRPRPTRNPRP	-0.268
RRIRTRPPRLPRPRPRPRHHPRP	-0.174
RRIRQRPPRLPRPRPRPGMKPRP	-0.0822
RRIRDRPPRLPRPRPRPTTWPRP	0.467
RRIRVRPPRLPRPRPRPNSHPRP	-0.402
RRIRIRPPRLPRPRPRPVVVPRP	-0.0561
RRIRNRPPRLPRPRPRPQTWPRP	-0.183
RRIRTRPPRLPRPRPRPDYAPRP	0.0553
RRIRDRPPRLPRPRPRPYKWPRP	-0.595
RRIRCRPPRLPRPRPRPFNRPRP	-0.466
RRIRERPPRLPRPRPRPGIDPRP	-0.14
RRIRQRPPRLPRPRPRPKQRPRP	0.0443
RRIRCRPPRLPRPRPRPPMQPRP	0.516
RRIRYRPPRLPRPRPRPAAKPRP	0.152
RRIRHRPPRLPRPRPRPKWTPRP	0.0551
RRIRMRPPRLPRPRPRPSTAPRP	0.788

Sequence	shrunken log2 fold change
RRIRARPPRLPRPRPRPANQPRP	0.0465
RRIRNRPPRLPRPRPRPHTEPRP	0.0434
RRIRTRPPRLPRPRPRPFIIPRP	-0.919
RRIRCRPPRLPRPRPRPMCMPRP	-0.232
RRIRRRPPRLPRPRPRPIDEPRP	-0.106
RRIRVRPPRLPRPRPRPFMFPRP	-0.433
RRIRPRPPRLPRPRPRPVAGPRP	0.308
RRIRCRPPRLPRPRPRPFFLPRP	-0.512
RRIRERPPRLPRPRPRPSYIPRP	-0.216
RRIRSRPPRLPRPRPRPHSKPRP	-0.486
RRIRARPPRLPRPRPRPLDRPRP	-0.233
RRIRHRPPRLPRPRPRPHPGPRP	-0.0998
RRIRDRPPRLPRPRPRPSCNPRP	-0.493
RRIRNRPPRLPRPRPRPVSVPRP	-0.143
RRIRLRPPRLPRPRPRPWKCPRP	-0.391
RRIRSRPPRLPRPRPRPKLFPRP	0.172
RRIRKRPPRLPRPRPRPYKVPRP	-0.558
RRIRKRPPRLPRPRPRPLHPPRP	0.158
RRIRPRPPRLPRPRPRPSMEPRP	-0.157
RRIRFRPPRLPRPRPRPVQYPRP	-0.445
RRIRRRPPRLPRPRPRPTWRPRP	0.667
RRIRMRPPRLPRPRPRPTFNPRP	-0.283
RRIRSRPPRLPRPRPRPMRWPRP	0.664
RRIRDRPPRLPRPRPRPYAKPRP	0.019
RRIRPRPPRLPRPRPRPCYGPRP	0.0701

Sequence	shrunken log2 fold change
RRIRCRPPRLPRPRPRPMAQPRP	-0.0404
RRIRGRPPRLPRPRPRPKHKPRP	0.448
RRIRWRPPRLPRPRPRPWYIPRP	-0.172
RRIRNRPPRLPRPRPRPKPVPRP	0.24
RRIRDRPPRLPRPRPRPERTPRP	0.12
RRIRNRPPRLPRPRPRPEITPRP	-0.0284
RRIRRRPPRLPRPRPRPHAVPRP	0.251
RRIRGRPPRLPRPRPRPFVGPRP	-0.26
RRIRHRPPRLPRPRPRPTHQPRP	0.243
RRIRRRPPRLPRPRPRPFQAPRP	0.376
RRIRDRPPRLPRPRPRPNDLPRP	0.124
RRIRDRPPRLPRPRPRPHRIPRP	-0.00804
RRIRTRPPRLPRPRPRPENKPRP	-0.178
RRIRKRPPRLPRPRPRPGGQPRP	0.108
RRIRIRPPRLPRPRPRPFGYPRP	-0.478
RRIRIRPPRLPRPRPRPFGGPRP	-0.103
RRIRKRPPRLPRPRPRPACNPRP	-0.0224
RRIRVRPPRLPRPRPRPPAFPRP	0.068
RRIRERPPRLPRPRPRPFLYPRP	-0.761
RRIRPRPPRLPRPRPRPVACPRP	-0.0233
RRIRERPPRLPRPRPRPRAWPRP	0.195
RRIRWRPPRLPRPRPRPSTSPRP	-0.302
RRIRMRPPRLPRPRPRPQDYPRP	-0.0945
RRIRLRPPRLPRPRPRPTCNPRP	-0.4
RRIRHRPPRLPRPRPRPEYAPRP	0.0953
